Data reported in article doi:10.1101/2025.03.07.642025, “The TONSL-MMS22L complex and FANCM form an interdependent complex on chromatin to counter replication stress” (bioRxiv, 2025).

Experiments:
[1] = biological target: T1, FANCM (human (endogenous in HeLa), UniProt Q8IYD8 1-2048); experiment: proximity ligation; Duolink PLA in HeLa cells treated with 1.5 uM TMP and UVA (3 J/cm2), 60 min in fresh medium before fixation; conditions: partners not purified
T1 construct: FANCM, human, endogenous in HeLa cells; also called endogenous FANCM; source: endogenous, HeLa
T1 sequence (Q8IYD8 whole entry): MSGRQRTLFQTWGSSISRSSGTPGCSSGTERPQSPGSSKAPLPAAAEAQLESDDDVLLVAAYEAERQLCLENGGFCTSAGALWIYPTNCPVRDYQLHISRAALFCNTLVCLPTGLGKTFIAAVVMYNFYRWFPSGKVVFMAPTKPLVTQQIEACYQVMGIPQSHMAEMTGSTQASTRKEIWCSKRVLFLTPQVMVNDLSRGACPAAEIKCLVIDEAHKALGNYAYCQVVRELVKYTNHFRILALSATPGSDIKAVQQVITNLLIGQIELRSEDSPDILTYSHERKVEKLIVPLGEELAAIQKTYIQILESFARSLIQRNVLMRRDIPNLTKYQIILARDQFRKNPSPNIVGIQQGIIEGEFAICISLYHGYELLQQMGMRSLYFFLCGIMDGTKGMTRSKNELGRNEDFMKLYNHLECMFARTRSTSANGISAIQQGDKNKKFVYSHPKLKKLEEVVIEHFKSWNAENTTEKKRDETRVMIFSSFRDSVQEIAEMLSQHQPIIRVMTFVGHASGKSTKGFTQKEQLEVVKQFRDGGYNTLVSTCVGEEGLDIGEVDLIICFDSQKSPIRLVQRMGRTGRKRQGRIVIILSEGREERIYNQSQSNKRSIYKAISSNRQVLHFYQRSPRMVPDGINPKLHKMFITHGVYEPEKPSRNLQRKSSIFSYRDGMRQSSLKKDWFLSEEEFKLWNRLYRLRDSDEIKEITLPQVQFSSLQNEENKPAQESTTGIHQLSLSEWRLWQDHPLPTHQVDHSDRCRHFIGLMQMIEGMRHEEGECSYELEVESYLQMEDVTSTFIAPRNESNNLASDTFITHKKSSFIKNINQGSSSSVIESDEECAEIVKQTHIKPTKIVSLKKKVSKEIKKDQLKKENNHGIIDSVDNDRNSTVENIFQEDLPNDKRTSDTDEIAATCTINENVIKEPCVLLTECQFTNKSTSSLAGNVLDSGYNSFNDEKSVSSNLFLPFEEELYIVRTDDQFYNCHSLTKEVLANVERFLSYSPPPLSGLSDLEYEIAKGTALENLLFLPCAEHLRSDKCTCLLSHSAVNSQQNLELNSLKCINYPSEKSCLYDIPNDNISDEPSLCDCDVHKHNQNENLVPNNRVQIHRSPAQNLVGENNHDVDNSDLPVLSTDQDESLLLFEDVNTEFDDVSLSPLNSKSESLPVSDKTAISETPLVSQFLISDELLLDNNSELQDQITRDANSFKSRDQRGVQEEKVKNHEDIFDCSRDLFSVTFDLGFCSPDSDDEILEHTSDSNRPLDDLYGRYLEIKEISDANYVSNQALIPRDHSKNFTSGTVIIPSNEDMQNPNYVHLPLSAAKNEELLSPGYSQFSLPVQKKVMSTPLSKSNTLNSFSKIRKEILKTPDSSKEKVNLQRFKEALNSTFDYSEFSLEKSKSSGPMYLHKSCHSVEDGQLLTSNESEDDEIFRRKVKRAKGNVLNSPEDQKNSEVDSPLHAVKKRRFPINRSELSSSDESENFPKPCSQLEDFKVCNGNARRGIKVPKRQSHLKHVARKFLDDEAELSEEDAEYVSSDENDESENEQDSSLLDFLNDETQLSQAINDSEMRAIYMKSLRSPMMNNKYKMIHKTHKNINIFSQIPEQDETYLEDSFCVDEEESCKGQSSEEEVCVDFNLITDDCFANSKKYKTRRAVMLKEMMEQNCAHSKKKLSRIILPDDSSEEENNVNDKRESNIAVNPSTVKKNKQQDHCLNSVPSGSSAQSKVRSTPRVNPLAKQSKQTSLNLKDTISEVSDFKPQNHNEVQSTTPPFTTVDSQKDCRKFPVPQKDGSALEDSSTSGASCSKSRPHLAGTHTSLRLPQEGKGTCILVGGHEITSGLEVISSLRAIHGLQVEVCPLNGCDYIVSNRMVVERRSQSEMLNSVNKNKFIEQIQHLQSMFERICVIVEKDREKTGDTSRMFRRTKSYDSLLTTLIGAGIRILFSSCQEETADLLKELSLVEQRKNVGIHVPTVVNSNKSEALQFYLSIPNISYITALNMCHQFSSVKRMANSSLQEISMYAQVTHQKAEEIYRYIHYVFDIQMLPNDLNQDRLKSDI

[2] = biological target: T1, FANCM; experiment: proximity ligation; PLA in TMP/UVA-treated cells, early and late S phase sorted by flow cytometry; PCNA as marker of the S phase stage; conditions: partners not purified

| fold increase of PLA signals, TMP/UVA-treated over UVA-treated cells [1] [fold] | fold increase of PLA signals, late S over early S phase [2] [fold] | Binder |
| --- | --- | --- |
| ~20 | ~20 | MMS22L (natural protein, human (endogenous in HeLa), UniProt Q6ZRQ5 1-1243, looked up, MMS22L, human, endogenous in HeLa cells; source: endogenous, HeLa) MENCSAASTFLTDSLELELGTEWCKPPYFSCAVDNRGGGKHFSGESYLCSGALKRLILNLDPLPTNFEEDTLEIFGIQWVTETALVNSSRELFHLFRQQLYNLETLLQSSCDFGKVSTLHCKADNIRQQCVLFLHYVKVFIFRYLKVQNAESHVPVHPYEALEAQLPSVLIDELHGLLLYIGHLSELPSVNIGAFVNQNQIKLFPPSWHLLHLHLDIHWLVLEILYMLGEKLKQVVYGHQFMNLASDNLTNISLFEEHCETLLCDLISLSLNRYDKVRSSESLMSDQCPCLCIKELWVLLIHLLDHRSKWFVSESFWNWLNKLLKTLLEKSSDRRRSSMPVIQSRDPLGFSWWIITHVASFYKFDRHGVPDEMRKVESNWNFVEELLKKSISVQGVILEEQLRMYLHCCLTLCDFWEPNIAIVTILWEYYSKNLNSSFSISWLPFKGLANTMKSPLSMLEMVKTCCCDKQDQELYKSSSSYTIFLCILAKVVKKAMKSNGPHPWKQVKGRIYSKFHQKRMEELTEVGLQNFFSLFLLLAAVAEVEDVASHVLDLLNFLKPAFVTSQRALIWKGHMAFLLMYAQKNLDIGVLAEKFSCAFREKAKEFLVSKNEEMVQRQTIWTLLSIYIDGVQEVFETSYCLYPSHEKLLNDGFSMLLRACRESELRTVLSFLQAVLARIRSMHQQLCQELQRDNVDLFVQSSLSAKERHLAAVASALWRHFFSFLKSQRMSQVVPFSQLADAAADFTLLAMDMPSTAPSDFQPQPVISIIQLFGWDDIICPQVVARYLSHVLQNSTLCEALSHSGYVSFQALTVRSWIRCVLQMYIKNLSGPDDLLIDKNLEEAVEKEYMKQLVKLTRLLFNLSEVKSIFSKAQVEYLSISEDPKKALVRFFEAVGVTYGNVQTLSDKSAMVTKSLEYLGEVLKYIKPYLGKKVFSAGLQLTYGMMGILVKSWAQIFATSKAQKLLFRIIDCLLLPHAVLQQEKELPAPMLSAIQKSLPLYLQGMCIVCCQSQNPNAYLNQLLGNVIEQYIGRFLPASPYVSDLGQHPVLLALRNTATIPPISSLKKCIVQVIRKSYLEYKGSSPPPRLASILAFILQLFKETNTDIYEVELLLPGILKCLVLVSEPQVKRLATENLQYMVKACQVGSEEEPSSQLTSVFRQFIQDYGMRYYYQVYSILETVATLDQQVVIHLISTLTQSLKDSEQKWGLGRNIAQREAYSKLLSHLGQMGQDEMQRLENDNT |
| ~20 | ~20 | TONSL (natural protein, human (endogenous in HeLa), UniProt Q96HA7 1-1378, looked up, TONSL, human, endogenous in HeLa cells; source: endogenous, HeLa) MSLERELRQLSKAKAKAQRAGQRREEAALCHQLGELLAGHGRYAEALEQHWQELQLRERADDPLGCAVAHRKIGERLAEMEDYPAALQHQHQYLELAHSLRNHTELQRAWATIGRTHLDIYDHCQSRDALLQAQAAFEKSLAIVDEELEGTLAQGELNEMRTRLYLNLGLTFESLQQTALCNDYFRKSIFLAEQNHLYEDLFRARYNLGTIHWRAGQHSQAMRCLEGARECAHTMRKRFMESECCVVIAQVLQDLGDFLAAKRALKKAYRLGSQKPVQRAAICQNLQHVLAVVRLQQQLEEAEGRDPQGAMVICEQLGDLFSKAGDFPRAAEAYQKQLRFAELLDRPGAERAIIHVSLATTLGDMKDHHGAVRHYEEELRLRSGNVLEEAKTWLNIALSREEAGDAYELLAPCFQKALSCAQQAQRPQLQRQVLQHLHTVQLRLQPQEAPETETRLRELSVAEDEDEEEEAEEAAATAESEALEAGEVELSEGEDDTDGLTPQLEEDEELQGHLGRRKGSKWNRRNDMGETLLHRACIEGQLRRVQDLVRQGHPLNPRDYCGWTPLHEACNYGHLEIVRFLLDHGAAVDDPGGQGCEGITPLHDALNCGHFEVAELLLERGASVTLRTRKGLSPLETLQQWVKLYRRDLDLETRQKARAMEMLLQAAASGQDPHSSQAFHTPSSLLFDPETSPPLSPCPEPPSNSTRLPEASQAHVRVSPGQAAPAMARPRRSRHGPASSSSSSEGEDSAGPARPSQKRPRCSATAQRVAAWTPGPASNREAATASTSRAAYQAAIRGVGSAQSRLGPGPPRGHSKALAPQAALIPEEECLAGDWLELDMPLTRSRRPRPRGTGDNRRPSSTSGSDSEESRPRARAKQVRLTCMQSCSAPVNAGPSSLASEPPGSPSTPRVSEPSGDSSAAGQPLGPAPPPPIRVRVQVQDHLFLIPVPHSSDTHSVAWLAEQAAQRYYQTCGLLPRLTLRKEGALLAPQDLIPDVLQSNDEVLAEVTSWDLPPLTDRYRRACQSLGQGEHQQVLQAVELQGLGLSFSACSLALDQAQLTPLLRALKLHTALRELRLAGNRLGDKCVAELVAALGTMPSLALLDLSSNHLGPEGLRQLAMGLPGQATLQSLEELDLSMNPLGDGCGQSLASLLHACPLLSTLRLQACGFGPSFFLSHQTALGSAFQDAEHLKTLSLSYNALGAPALARTLQSLPAGTLLHLELSSVAAGKGDSDLMEPVFRYLAKEGCALAHLTLSANHLGDKAVRDLCRCLSLCPSLISLDLSANPEISCASLEELLSTLQKRPQGLSFLGLSGCAVQGPLGLGLWDKIAAQLRELQLCSRRLCAEDRDALRQLQPSRPGPGECTLDHGSKLFFRRL |
